In patent publication US20250144194A1 (KAIMI BIOMEDICINE CHENGDU, published 2025) one finds Kd data, which are given here for two molecules.

For the assay, the target named is T1, FcγRIIA protein (UniProt P12318 36-218, limits assumed).
T1 construct: also called hFcγRIIA
T1 sequence (looked up): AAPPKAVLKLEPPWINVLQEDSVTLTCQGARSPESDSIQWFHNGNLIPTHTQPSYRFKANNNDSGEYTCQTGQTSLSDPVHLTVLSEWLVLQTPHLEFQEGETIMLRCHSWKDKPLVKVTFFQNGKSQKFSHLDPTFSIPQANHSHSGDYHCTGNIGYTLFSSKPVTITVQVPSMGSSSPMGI
The assay is described as follows: BLI, multi-concentration (5000-312.5 nM of Fc variant). From the text: The Seq2-Sf9 and Seq3-Sf9 are identified using Coomassie Brilliant Blue stained SDS-PAGE gel, with BSA as a control protein. The arrows indicate the positions of Seq2-Sf9 and Seq3-Sf9, and it can be determined that the purified protein is obtained with a molecular weight of about 26 kDa. […] The curves shown from bottom to top indicate that the concentrations of the Seq2-Sf9 and Seq3-Sf9 proteins […] in sequence.

In general, Kd refers to the equilibrium constant for the complex coming apart. Read a low Kd as higher affinity.

B1: Seq2-Sf9 (other)
chain: VDKKIVPADCGCAPCICAVPEVSSVFIFPPKPKDVLTITLTPKVTCVVVDISKDDPEVQFSWFVDDVEVHTAQTQPREEQFNSTFRSVSELPIMHQDWLNGKEFKCRVNSAAFPAPIEKTISKTKGRPKAPQVYTIPPPKEQMAKDKVSLTCMITDFFPEDITVEWQWNGQPAENYKNTQPIMDTDGSYFVYSKLNVQKSNWEAGNTFTCSVLHEGLHNHHTEKSLSHSPGL
modifications: non-mammalian (insect, Sf9) N-glycosylation at position 297 (EU numbering), without sialic acid
notes: Expressed from the pFastBacHTa-gp64 vector in Sf9 cells and purified from the supernatant by Protein A, about 26 kDa on SDS-PAGE; also called mouse Fc with three mutations
Regarding B1, the dissociation constant Kd was 789 nM.

B2: Seq3-Sf9 (other)
chain: VDKKIVPADCGCAPCICAVPEVSSVFIFPPKPKDVLTITLTPKVTCVVVDISKDDPEVQFSWFVDDVEVHTAQTQPREEQFNSTFRSVSELPIMHQDWLNGKEFKCRVNSAAFPLPEEKTISKTKGRPKAPQVYTIPPPKEQMAKDKVSLTCMITDFFPEDITVEWQWNGQPAENYKNTQPIMDTDGSYFVYSKLNVQKSNWEAGNTFTCSVLHEGLHNHHTEKSLSHSPGL
modifications: non-mammalian (insect, Sf9) N-glycosylation at position 297 (EU numbering), without sialic acid
notes: also called mouse Fc with five mutations
Consider B2, for which the Kd came to 450 nM.
